Assay in all cases: SPR (Biacore), bound amount, IL6R-BF648/IL6R-L = 100
Background: In SPR one partner is held on a chip, and binding of the other changes the refractive index at the surface.

One experiment has as its target T1, FcγRIIa type H (human, UniProt P12318 36-217).
T1 construct: also called FcγRIIaH; FcγRIIH
T1 sequence: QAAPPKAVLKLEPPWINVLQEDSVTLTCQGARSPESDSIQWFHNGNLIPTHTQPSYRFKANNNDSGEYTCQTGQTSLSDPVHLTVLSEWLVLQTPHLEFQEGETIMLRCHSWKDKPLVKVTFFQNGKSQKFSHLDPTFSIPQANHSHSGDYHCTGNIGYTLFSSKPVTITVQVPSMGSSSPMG

The target in the next experiment is T2, FcγRIa (human, UniProt P12314 16-292, limits assumed).
T2 construct: also called FcgRIa; CD64

The target of the next experiment is T3, FcγRIIb (human, UniProt P31994 43-217, limits assumed).
T3 construct: also called FcgRIIb; FcγIIB
T3 sequence: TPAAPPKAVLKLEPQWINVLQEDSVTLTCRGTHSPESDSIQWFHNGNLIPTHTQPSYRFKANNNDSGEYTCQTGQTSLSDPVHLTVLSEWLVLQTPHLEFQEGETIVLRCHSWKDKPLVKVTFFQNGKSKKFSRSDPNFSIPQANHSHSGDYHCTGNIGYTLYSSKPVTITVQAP

T2 sequence (P12314 16-292 limits assumed): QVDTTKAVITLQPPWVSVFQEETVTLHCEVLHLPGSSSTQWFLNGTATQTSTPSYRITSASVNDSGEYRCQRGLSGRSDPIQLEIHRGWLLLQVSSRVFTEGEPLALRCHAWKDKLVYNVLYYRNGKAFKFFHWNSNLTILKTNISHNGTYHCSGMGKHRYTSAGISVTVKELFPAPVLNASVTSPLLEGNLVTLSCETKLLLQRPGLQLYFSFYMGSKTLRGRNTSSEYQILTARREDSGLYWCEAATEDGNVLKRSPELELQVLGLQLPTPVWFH
Experimental for FcγRIIa type H: (§1) According to the following method, relative binding activities were calculated for the results of analyzing interactions with the respective FcγRs.
Experimental for FcγRIIb: as §1
Experimental for FcγRIa: as §1

B1: IL6R-BP130/IL6R-L (antibody, human IgG1)
heavy: QVQLQESGPGLVKPSETLSLTCAVSGHSISHDHAWSWVRQPPGEGLEWIGFISYSGITNYNPSLQGRVTISRDNSKNTLYLQMNSLRAEDTAVYYCARSLARTTAMDYWGEGTLVTVSSASTKGPSVFPLAPSSKSTSGGTAALGCLVKDYFPEPVTVSWNSGALTSGVHTFPAVLQSSGLYSLSSVVTVPSSSLGTQTYICNVNHKPSNTKVDKKVEPKSCDKTHTCPPCPAPDLLGGDSVFLFPPKPKDTLMISRTPEVTCVVVDVSHEDPEVKFNWYVDGVEVHNAKTKPREEQYNSTYRVVSVLTVLHQDWLNGKEYKCKMSNKALPKPIEKTISKAKGQPREPQVYTLPPSRDELTKNQVSLTCLVKGFYPSDIAVEWESNGQPENNYKTTPPVLDSDGSFFLYSKLTVDKSRWQQGNVFSCSVMHEALHNHYTQESLSLSP
light: DIQMTQSPSSLSASVGDRVTITCRASQDISSYLNWYQQKPGKAPKLLIYYTSRLHSGVPSRFSGSGSGTDFTFTISSLQPEDIATYYCQQGNTLPYTFGQGTKVEIK
notes: IgG1; Fc variant of IL6R-B3; copies: 2 + 2
B1: the relative binding activity is 224 % of control with FcγRIIa type H and 104 % of control with FcγRIa.

B2: IL6R-BP146/IL6R-L (antibody, human IgG1)
heavy: QVQLQESGPGLVKPSETLSLTCAVSGHSISHDHAWSWVRQPPGEGLEWIGFISYSGITNYNPSLQGRVTISRDNSKNTLYLQMNSLRAEDTAVYYCARSLARTTAMDYWGEGTLVTVSSASTKGPSVFPLAPSSKSTSGGTAALGCLVKDYFPEPVTVSWNSGALTSGVHTFPAVLQSSGLYSLSSVVTVPSSSLGTQTYICNVNHKPSNTKVDKKVEPKSCDKTHTCPPCPAPEYLGDDSVFLFPPKPKDTLMISRTPEVTCVVVDVSHEDPEVKFNWYVDGVEVHNAKTKPREEQYNSTYRVVSVLTVLHQDWLNGKEYKCKVSNAALPAPIEKTISKAKGQPREPQVYTLPPSRDELTKNQVSLTCLVKGFYPSDIAVEWESNGQPENNYKTTPPVLDSDGSFFLYSKLTVDKSRWQQGNVFSCSVMHEALHNHYTQESLSLSP
light: DIQMTQSPSSLSASVGDRVTITCRASQDISSYLNWYQQKPGKAPKLLIYYTSRLHSGVPSRFSGSGSGTDFTFTISSLQPEDIATYYCQQGNTLPYTFGQGTKVEIK
notes: as for B1
As for B2, the values for the relative binding activity in the experiment with FcγRIIa type H and in the experiment with FcγRIIb were 203 % of control and 156 % of control, respectively.

B3: IL6R-BP204/IL6R-L (antibody, human IgG1)
heavy: QVQLQESGPGLVKPSETLSLTCAVSGHSISHDHAWSWVRQPPGEGLEWIGFISYSGITNYNPSLQGRVTISRDNSKNTLYLQMNSLRAEDTAVYYCARSLARTTAMDYWGEGTLVTVSSASTKGPSVFPLAPSSKSTSGGTAALGCLVKDYFPEPVTVSWNSGALTSGVHTFPAVLQSSGLYSLSSVVTVPSSSLGTQTYICNVNHKPSNTKVDKKVEPKSCDKTHTCPPCPAPDLLGGDSVFLFPPKPKDTLMISRTPEVTCVVVDVSHEDGEVKFNWYVDGVEVHNAKTKPREEQYNSTYRVVSVLTVLHQDWLNGKEYKCKVSNAALPRPIEKTISKAKGQPREPQVYTLPPSRDELTKNQVSLTCLVKGFYPSDIAVEWESNGQPENNYKTTPPVLDSDGSFFLYSKLTVDKSRWQQGNVFSCSVMHEALHNHYTQESLSLSP
light: DIQMTQSPSSLSASVGDRVTITCRASQDISSYLNWYQQKPGKAPKLLIYYTSRLHSGVPSRFSGSGSGTDFTFTISSLQPEDIATYYCQQGNTLPYTFGQGTKVEIK
notes: as for B1
Consider B3, for which the relative binding activity was 137 % of control with FcγRIIa type H and 165 % of control with FcγRIIb.

B4: IL6R-BP193/IL6R-L (antibody, human IgG1)
heavy: QVQLQESGPGLVKPSETLSLTCAVSGHSISHDHAWSWVRQPPGEGLEWIGFISYSGITNYNPSLQGRVTISRDNSKNTLYLQMNSLRAEDTAVYYCARSLARTTAMDYWGEGTLVTVSSASTKGPSVFPLAPSSKSTSGGTAALGCLVKDYFPEPVTVSWNSGALTSGVHTFPAVLQSSGLYSLSSVVTVPSSSLGTQTYICNVNHKPSNTKVDKKVEPKSCDKTHTCPPCPAPDLLGGDSVFLFPPKPKDTLMISRTPEVTCVVVDVSDEDGEVKFNWYVDGVEVHNAKTKPREEQYNSTYRVVSVLTVLHQDWLNGKEYKCKVSNKALPKPIEKTISKAKGQPREPQVYTLPPSRDELTKNQVSLTCLVKGFYPSDIAVEWESNGQPENNYKTTPPVLDSDGSFFLYSKLTVDKSRWQQGNVFSCSVMHEALHNHYTQESLSLSP
light: DIQMTQSPSSLSASVGDRVTITCRASQDISSYLNWYQQKPGKAPKLLIYYTSRLHSGVPSRFSGSGSGTDFTFTISSLQPEDIATYYCQQGNTLPYTFGQGTKVEIK
notes: as for B1
With B4, the relative binding activity with FcγRIIa type H is 154 % of control; in the experiment with FcγRIIb it was 173 % of control; in the experiment with FcγRIa, 113 % of control.

B5: IL6R-BP176/IL6R-L (antibody, human IgG1)
heavy: QVQLQESGPGLVKPSETLSLTCAVSGHSISHDHAWSWVRQPPGEGLEWIGFISYSGITNYNPSLQGRVTISRDNSKNTLYLQMNSLRAEDTAVYYCARSLARTTAMDYWGEGTLVTVSSASTKGPSVFPLAPSSKSTSGGTAALGCLVKDYFPEPVTVSWNSGALTSGVHTFPAVLQSSGLYSLSSVVTVPSSSLGTQTYICNVNHKPSNTKVDKKVEPKSCDKTHTCPPCPAPDLLGGDSVFLFPPKPKDTLMISRTPEVTCVVVDVSHEDPEVKFNWYVDGVEVHNAKTKPREEQYNSTYRVVSVLTVLHQDWLNGKEYKCKVSNDALPKPIEKTISKAKGQPREPQVYTLPPSRDELTKNQVSLTCLVKGFYPSDIAVEWESNGQPENNYKTTPPVLDSDGSFFLYSKLTVDKSRWQQGNVFSCSVMHEALHNHYTQESLSLSP
light: DIQMTQSPSSLSASVGDRVTITCRASQDISSYLNWYQQKPGKAPKLLIYYTSRLHSGVPSRFSGSGSGTDFTFTISSLQPEDIATYYCQQGNTLPYTFGQGTKVEIK
notes: as for B1
As to B5, the relative binding activity was 128 % of control in the experiment with FcγRIIa type H, 147 % of control in the experiment with FcγRIIb and 102 % of control in the experiment with FcγRIa.

B6: IL6R-BP152/IL6R-L (antibody, human IgG1)
heavy: QVQLQESGPGLVKPSETLSLTCAVSGHSISHDHAWSWVRQPPGEGLEWIGFISYSGITNYNPSLQGRVTISRDNSKNTLYLQMNSLRAEDTAVYYCARSLARTTAMDYWGEGTLVTVSSASTKGPSVFPLAPSSKSTSGGTAALGCLVKDYFPEPVTVSWNSGALTSGVHTFPAVLQSSGLYSLSSVVTVPSSSLGTQTYICNVNHKPSNTKVDKKVEPKSCDKTHTCPPCPAPDYLGDDSVFLFPPKPKDTLMISRTPEVTCVVVDVSHEDPEVKFNWYVDGVEVHNAKTKPREEQDNSTYRVVSVLTVLHQDWLNGKEYKCKVSNAALPRPIEKTISKAKGQPREPQVYTLPPSRDELTKNQVSLTCLVKGFYPSDIAVEWESNGQPENNYKTTPPVLDSDGSFFLYSKLTVDKSRWQQGNVFSCSVMHEALHNHYTQESLSLSP
light: DIQMTQSPSSLSASVGDRVTITCRASQDISSYLNWYQQKPGKAPKLLIYYTSRLHSGVPSRFSGSGSGTDFTFTISSLQPEDIATYYCQQGNTLPYTFGQGTKVEIK
notes: as for B1
Regarding B6, the relative binding activity with FcγRIIa type H was 548 % of control; with FcγRIIb, 178 % of control; with FcγRIa it was 34 % of control.

B7: IL6R-BP188/IL6R-L (antibody, human IgG1)
heavy: QVQLQESGPGLVKPSETLSLTCAVSGHSISHDHAWSWVRQPPGEGLEWIGFISYSGITNYNPSLQGRVTISRDNSKNTLYLQMNSLRAEDTAVYYCARSLARTTAMDYWGEGTLVTVSSASTKGPSVFPLAPSSKSTSGGTAALGCLVKDYFPEPVTVSWNSGALTSGVHTFPAVLQSSGLYSLSSVVTVPSSSLGTQTYICNVNHKPSNTKVDKKVEPKSCDKTHTCPPCPAPDLLGDDSVFLFPPKPKDTLMISRTPEVTCVVVDVSDEDGEVKFNWYVDGVEVHNAKTKPREEQYNSTYRVVSVLTVLHQDWLNGKEYKCKVSNKALPKPIEKTISKAKGQPREPQVYTLPPSRDELTKNQVSLTCLVKGFYPSDIAVEWESNGQPENNYKTTPPVLDSDGSFFLYSKLTVDKSRWQQGNVFSCSVMHEALHNHYTQESLSLSP
light: DIQMTQSPSSLSASVGDRVTITCRASQDISSYLNWYQQKPGKAPKLLIYYTSRLHSGVPSRFSGSGSGTDFTFTISSLQPEDIATYYCQQGNTLPYTFGQGTKVEIK
notes: as for B1
As to B7, the relative binding activity with FcγRIIb is 179 % of control; with FcγRIa, 74 % of control.

B8: IL6R-BP178/IL6R-L (antibody, human IgG1)
heavy: QVQLQESGPGLVKPSETLSLTCAVSGHSISHDHAWSWVRQPPGEGLEWIGFISYSGITNYNPSLQGRVTISRDNSKNTLYLQMNSLRAEDTAVYYCARSLARTTAMDYWGEGTLVTVSSASTKGPSVFPLAPSSKSTSGGTAALGCLVKDYFPEPVTVSWNSGALTSGVHTFPAVLQSSGLYSLSSVVTVPSSSLGTQTYICNVNHKPSNTKVDKKVEPKSCDKTHTCPPCPAPDLLGDDSVFLFPPKPKDTLMISRTPEVTCVVVDVSHEDGEVKFNWYVDGVEVHNAKTKPREEQYNSTYRVVSVLTVLHQDWLNGKEYKCKVSNKALPKPIEKTISKAKGQPREPQVYTLPPSRDELTKNQVSLTCLVKGFYPSDIAVEWESNGQPENNYKTTPPVLDSDGSFFLYSKLTVDKSRWQQGNVFSCSVMHEALHNHYTQESLSLSP
light: DIQMTQSPSSLSASVGDRVTITCRASQDISSYLNWYQQKPGKAPKLLIYYTSRLHSGVPSRFSGSGSGTDFTFTISSLQPEDIATYYCQQGNTLPYTFGQGTKVEIK
notes: as for B1
As for B8, the figures for the relative binding activity with FcγRIIa type H, in the experiment with FcγRIIb and in the experiment with FcγRIa were 259 % of control, 179 % of control and 51 % of control, respectively.

(Values after patent publication US20200199241A1 (Chugai, published 2020).)
